Here are results for six sequences from a protein production outcome set (Wang et al. 2014).

This data set can be described thus: label from the status in PepcDB records.
For the sequence “MKVLVIGNGGREHALAWKAAQSPLVETVFVAPGNAGTALEPALQNVAIGVTDIPALLDFAQNEKIDLTIVGPEAPLVKGVVDTFRAAGLKIFGPTAGAAQLEGSKAFTKDFLARHKIPTAEYQNFTEVEPALAYLREKGAPIVIKADGLAAGKGVIVAMTLEEAEAAVHDMLAGNAFGDAGHRIVIEEFLDGEEASFIVMVDGEHVLPMATSQDHKRVGDKDTGPNTGGMGAYSPAPVVTDDVHQRTMERIIWPTVKGMAAEGNTYTGFLYAGLMIDKQGNPKVIEFNCRFGDPETQPIMLRMKSDLVELCLAACESKLDEKTSEWDERASLGVVMAAGGYPGDYRTGDVIHGLPLEEVAGGKVFHAGTKLADDEQVVTNGGRVLCVTALGHTVAEAQKRAYALMTDIHWDDCFCRKDIGWRAIEREQN”, the protein production result was “failed”. To “MPSSMLSHDPVLTWSIVALATAGVIIRPMRWPEAVWAVAGAVALVALGLLSWQDALAGVRNGIDVYLFLIGMMLIAELAQREGLFDYLAAYAVEHARGSPQRLFLLVYAVGVLVTVLLSNDATAIVLTPAVYAATRAAGAAPLPYLFVCAFIANAASFVLPISNPANLVVFGEHMPHLGGWLQQFTLPSLAAILATYLVLRLALRRSLAGQTIETRVETPHLSRGGKLAAVGIGAIAIVLLTASALNVALGLPTFVCGLVTTAVVLAIARQSPVPVLKGVSWSVVPLVAGLFVMVEALSRTGVIGALGGLLREAVADAPRLGSWAAGIVTAIACNIGNNLPVGLVAGSVAADNHLPRETIAALLIGVDLGPNFSVTGSLATILWLVVLRRNQIEVTAWRFLKLGLVVTPPALIAALAAAVW” belongs “failed”; to “ITSVQPPTGLQEWLKMFQSWSGPEKLLALDELIDSCEPTQVKHMMQVIEPQFQRDFISLLPKELALYVLSFLEPKDLLQAAQTCRYWRILAEDNLLWREKCKEEGIDEPLHIKRRKVIKPGFIHSPWKSAYIRQHRIDTNWRRGELKSPKVLKGHDDHVITCLQFCGNRIVSGSDDNTLKVWSAVTGKCLRTLVGHTGGVWSSQMRDNIIISGSTDRTLKVWNAETGECIHTLYGHTSTVRCMHLHEKRVVSGSRDATLRVWDIETGQCLHVLMGHVAAVRCVQYDGRRVVSGAYDFMVKVWDPETETCLHTLQGHTNRVYSLQFDGIHVVSGSLDTSIRVWDVETGNCIHTLTGHQSLTSGMELKDNILVSGNADSTVKIWDIKTGQCLQTLQGPNKHQSAVTCLQFNKNFVITSSDDGTVKLWDLKTGEFIRNLVTLESGGSGGVVWRIRASNTKLVCAVGSRNGTEETKLLVLDFDVDMK”, “failed”; to “MSVADSYFDELFRNNDDPWAFKQRWYERRKRALTLAALPRERYRAIFEPGCANGELSADLAERCDMLVCCDTSTQAVELARQRLADVPHARVVQARLPHQWPAGQFDLIVFSELGYYLDAADLHRLIDCALAALSPDGQLLACHWRPDIEGCPLNAQAVHAILAERLSMHRLFSHHEQDFLLDLWSRDGLEHHHHHH”, “failed”.

On to “MFNIKENQTTVKKEILAGITTFFTMVYIVVVNPSILSGTGVPFDQVFTATIIAAVVGTLWMALAANFPIAIAPGMGLNVYFAVSVVGSSNGEISYQTAFSTVFAAGILFIILSLTPLRKQLIEAIPANLKYGITAGIGLFIAFVGLRGAGIITANEANLVGLGNLHSPGVILALIGLAFSVVLMVMNVSGALFFGMILTGLIAFFTGQLEFTKGIMSMPHLPEKLIVTNPFAAFGDVIHYGLYSVVFSFLLVTIFDTTGTMIGVAEQAGLMKNNKLPNARKALLADSTATTVGAMFGTSPTTAYIESSAGVAAGGRTGLTSLTVAVLFGAALFFSPLVSAVSGIAAITSPALIIVGSMMIGAVTNIRWKELDEAFPAFLVILTMPLTSSIATGISLGFIAYPIVKAAKGKWREIHPLVFVFAVLFFIHLFFLEGH”, for which the protein production result is “failed”. For the sequence “MQKQLLLGVEAIAQAALDAGISGVYAYPGTPSTEITEHIQNSRMAKERNVHREWAANEKTAMESALGMSYAGKRALVCMKHVGMNVAADCFMNAAITGANGGMVIVAADDPSMHSSQNEQDSRVYGQFAMIPVMEPSNQQEAYDMTRLAFDLSERLGTPVMMRITTRLAHSRAGVVQTEPIGENELHLPEDKRQYVLLPGIAKKRYRILLDKQTDFVRESENSPYTEYVDAADKSKGIVACGIAYNYLMEAFKAQVPYPVLKVTQYPIPHKQMERLLNECGDIVVMEEGYPVVEQLLKGFPGLERIKGRLDGTLPRDGELNPDHVAKAFNIPVVEGEPIPDLVAARPPALCKGCSHRDVYDALNEVLTEYPNGRVFSDIGCYTLGALPPYEAINSCVDMGASITMAKGAADAGLFPAVSVIGDSTFTHSGITGLLDAINENSNITVIISDNESISMTGGQHSSAYGKVEAICRGIGVDPDHIRELLPVPKNHDELCSIIREEINYEGVSVIIPRRVCIQKHARDAKAAKRAKAKE”, the protein production entry is recorded as “not failed”.
